Data set [1] concerns the target T1, PyPABP1 (Plasmodium yoelii 17XNL, UniProt V7PUC0 1-841).
T1 sequence: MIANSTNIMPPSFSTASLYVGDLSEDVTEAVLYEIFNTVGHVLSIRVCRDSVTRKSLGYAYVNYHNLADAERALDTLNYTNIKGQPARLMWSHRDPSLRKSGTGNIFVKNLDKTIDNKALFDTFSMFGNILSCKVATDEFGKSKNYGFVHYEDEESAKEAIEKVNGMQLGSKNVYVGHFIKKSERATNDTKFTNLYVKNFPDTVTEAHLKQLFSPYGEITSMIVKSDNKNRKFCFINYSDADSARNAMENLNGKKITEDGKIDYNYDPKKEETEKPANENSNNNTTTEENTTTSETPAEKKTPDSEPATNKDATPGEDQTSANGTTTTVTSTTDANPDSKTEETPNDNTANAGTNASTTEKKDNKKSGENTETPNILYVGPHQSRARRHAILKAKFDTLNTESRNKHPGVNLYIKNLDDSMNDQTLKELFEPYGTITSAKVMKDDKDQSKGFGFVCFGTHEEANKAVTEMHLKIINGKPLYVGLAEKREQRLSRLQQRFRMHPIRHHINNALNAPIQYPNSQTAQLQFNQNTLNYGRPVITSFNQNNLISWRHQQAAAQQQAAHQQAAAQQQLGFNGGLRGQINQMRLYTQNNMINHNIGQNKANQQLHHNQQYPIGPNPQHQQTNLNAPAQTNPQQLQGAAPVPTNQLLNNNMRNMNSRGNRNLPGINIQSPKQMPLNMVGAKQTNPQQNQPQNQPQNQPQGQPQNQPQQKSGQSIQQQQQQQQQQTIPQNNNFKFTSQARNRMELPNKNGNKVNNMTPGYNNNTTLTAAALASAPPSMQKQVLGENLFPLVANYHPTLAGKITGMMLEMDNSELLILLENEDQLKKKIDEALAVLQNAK
The data set can be described thus: EMSA; apparent Kd; excess tRNA, 5 mM Mg2+; EMSA/FP: 10 mM Tris-Cl pH 7.5, 5 mM MgCl2, 55 mM KCl, 2 ug tRNA, 1 mM DTT, 0.5 U/ul SUPERase-In, 2.5% glycerol, RT 20 min; ITC: 10 mM HEPES pH 7.5, 100 mM KCl. The settings on record: protein: recombinant; tags: N-terminal GST (thrombin-cleavable), C-terminal 6xHis (TEV-cleavable); single strand. In general terms: Mobility shift assays separate free from complexed probe on a gel.

In data set [2] the target is T2, PyPABP2 (Plasmodium yoelii, UniProt UPI0004EF7F20 1-199).
T2 sequence: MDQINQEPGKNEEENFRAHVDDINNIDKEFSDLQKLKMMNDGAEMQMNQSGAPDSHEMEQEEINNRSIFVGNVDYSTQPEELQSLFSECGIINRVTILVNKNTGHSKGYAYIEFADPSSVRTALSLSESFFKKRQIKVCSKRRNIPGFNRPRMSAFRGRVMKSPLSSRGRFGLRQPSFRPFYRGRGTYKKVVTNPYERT
The data set is described as above. Particulars: protein: recombinant; tags: N-terminal GST (purified via GST); vector pSL0220 also encodes C-terminal 6xHis; single strand.

Data set [3] deals with T1, PyPABP1. Briefly: fluorescence polarization; apparent Kd; excess tRNA, 5 mM Mg2+; EMSA/FP: 10 mM Tris-Cl pH 7.5, 5 mM MgCl2, 55 mM KCl, 2 ug tRNA, 1 mM DTT, 0.5 U/ul SUPERase-In, 2.5% glycerol, RT 20 min; ITC: 10 mM HEPES pH 7.5, 100 mM KCl. The settings on record: protein: recombinant; tags: N-terminal GST (thrombin-cleavable), C-terminal 6xHis (TEV-cleavable); single strand.

In data set [4] the target is T2, PyPABP2. Described as above. The settings on record: protein: recombinant; tags: N-terminal GST (purified via GST); vector pSL0220 also encodes C-terminal 6xHis; single strand.
The target in data set [5] is T1, PyPABP1. The data set can be described thus: ITC; 5 mM Mg2+; first of two protein preparations; EMSA/FP: 10 mM Tris-Cl pH 7.5, 5 mM MgCl2, 55 mM KCl, 2 ug tRNA, 1 mM DTT, 0.5 U/ul SUPERase-In, 2.5% glycerol, RT 20 min; ITC: 10 mM HEPES pH 7.5, 100 mM KCl. Particulars: protein: recombinant; tags: N-terminal GST (thrombin-cleavable), C-terminal 6xHis (TEV-cleavable); single strand. On the technique in general: In ITC the heat of successive injections is recorded.

The target of data set [6] is T1, PyPABP1. The data set can be described thus: ITC; 5 mM Mg2+; second of two protein preparations; EMSA/FP: 10 mM Tris-Cl pH 7.5, 5 mM MgCl2, 55 mM KCl, 2 ug tRNA, 1 mM DTT, 0.5 U/ul SUPERase-In, 2.5% glycerol, RT 20 min; ITC: 10 mM HEPES pH 7.5, 100 mM KCl. The settings on record: protein: recombinant; tags: N-terminal GST (thrombin-cleavable), C-terminal 6xHis (TEV-cleavable); single strand.

With AAAAAAAAAAAAAAAAAAAAAAAAA (ssRNA) [biotin-poly(A) 25-mer], the Kd with PyPABP1 [1] is 185 nM; with PyPABP2 [2] it was 108 nM.

As for AAAAAAAAAAAAAAAAAAAAAAAAA (ssRNA) [fluorescein-poly(A) 25-mer], the Kd with PyPABP1 [3] is 8 nM; with PyPABP2 [4], 104 nM.

For AAAAAAAAAAAAAAAAAAAAAAAAA (ssRNA) [poly(A) 25-mer], the Kd in the data set with PyPABP1 [5] is 33 nM; with PyPABP1 [6] it was 48 nM.

The values are drawn from paper PMC5760745, “Nuclear, Cytosolic, and Surface-Localized Poly(A)-Binding Proteins of Plasmodium yoelii”.
